Experimental data published in paper PMC9031227, “Structure-Activity Relationship Investigations of Novel Constrained Chimeric Peptidomimetics of SOCS3 Protein Targeting JAK2” (Pharmaceuticals, 2022).
Where no end group is shown, it is not given here. [ ]: non-standard residue; d: D form. S5 = C=CCCC[C@](C)(N)C(=O)O

Target: T1, His-tagged Catalytic Domain of JAK2 (residues 826–1132) (UniProt O60674 826-1132, RED-tris-NTA dye bound to the His tag (His-Tag labeling Kit RED-tris-NTA))
T1 construct: JAK2 (Janus Kinase 2), catalytic domain, residues 826-1132; also called JAK2 catalytic domain; Janus Kinase 2; source: bought: Carna Biosciences
Experiment: MST; Monolith NT 115; His-tagged JAK2 catalytic domain labelled with RED-tris-NTA kept constant, peptides in increasing concentrations; standard capillaries, 25 °C, 50 mM Tris-HCl, 150 mM NaCl, 0.05% Brij35, 1 mM DTT, 10% glycerol, 15% TFE, pH 7.5; fit by Langmuir binding isotherm
Conditions: both partners purified

T1 sequence (O60674 826-1132): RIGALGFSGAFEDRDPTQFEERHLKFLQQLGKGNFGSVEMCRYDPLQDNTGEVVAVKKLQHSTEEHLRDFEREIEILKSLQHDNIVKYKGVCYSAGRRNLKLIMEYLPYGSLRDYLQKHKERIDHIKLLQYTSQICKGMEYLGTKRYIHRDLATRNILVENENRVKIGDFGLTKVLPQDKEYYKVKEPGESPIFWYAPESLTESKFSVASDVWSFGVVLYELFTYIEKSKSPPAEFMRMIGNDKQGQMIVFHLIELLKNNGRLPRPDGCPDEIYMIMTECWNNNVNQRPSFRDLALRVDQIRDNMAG

Question: With FSSKSEYQL[S5]FYWS[S5]VTG-OH (not fully specified; bridges not given here) [linear version of KIRCONG i/i+5 peptide] as the binder, how does the Kd read?
Answer: 8 µM
